The numbers were not newly measured in patent US11530434B2, “Cell mass evaluation method and device for analyzing state of cell mass” (HAMAMATSU PHOTONICS K.K., priority 2017, dated 2022), which cites them from elsewhere.

The data set relates to cell morphology. Particulars: compared to the control state.

B1: TGF-β2: reagent “TGF-β2” whose addition acts on the cell morphology (reported in Non-Patent Document 3) (protein, UniProt P61812 303-414, looked up)
Transforming growth factor …: ALDAAYCFRNVQDNCCLRPLYIDFKRDLGWKWIHEPKGYNANFCAGACPYLWSSDTQHSRVLSLYNTINPEASASPCCVSQDLEPLTILYYIGKTPKIEQLSNMIVKSCKCS
With B1, the “change of cell shape on addition of the reagent” value was “makes the cell shape elongated”.
